In patent EP4803098A1 (Shandong Boan Biotechnology Co., Ltd., dated 2025):
Where two headings read alike, the source gives them in different places.

T1: GIPR on CHOK1-GIPR/GLP-1R cells (human, UniProt P48546 22-466)
T1 construct: whole, on cells; also called CHOK1-hGIPR cells
T1 sequence (looked up): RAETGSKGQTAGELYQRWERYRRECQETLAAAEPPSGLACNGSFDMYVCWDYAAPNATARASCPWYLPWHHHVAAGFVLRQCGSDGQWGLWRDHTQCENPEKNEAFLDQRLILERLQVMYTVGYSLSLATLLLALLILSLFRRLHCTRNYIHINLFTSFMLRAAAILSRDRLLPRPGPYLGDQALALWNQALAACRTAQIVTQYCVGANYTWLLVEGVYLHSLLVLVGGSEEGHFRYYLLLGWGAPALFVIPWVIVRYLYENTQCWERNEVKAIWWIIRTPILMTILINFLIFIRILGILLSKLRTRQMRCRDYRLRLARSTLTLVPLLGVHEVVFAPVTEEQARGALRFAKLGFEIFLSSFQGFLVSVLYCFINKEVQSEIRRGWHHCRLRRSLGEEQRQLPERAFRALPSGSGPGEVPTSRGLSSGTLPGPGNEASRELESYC

T2: hGIPR-His protein (human, UniProt P48546 22-138)
T2 chain: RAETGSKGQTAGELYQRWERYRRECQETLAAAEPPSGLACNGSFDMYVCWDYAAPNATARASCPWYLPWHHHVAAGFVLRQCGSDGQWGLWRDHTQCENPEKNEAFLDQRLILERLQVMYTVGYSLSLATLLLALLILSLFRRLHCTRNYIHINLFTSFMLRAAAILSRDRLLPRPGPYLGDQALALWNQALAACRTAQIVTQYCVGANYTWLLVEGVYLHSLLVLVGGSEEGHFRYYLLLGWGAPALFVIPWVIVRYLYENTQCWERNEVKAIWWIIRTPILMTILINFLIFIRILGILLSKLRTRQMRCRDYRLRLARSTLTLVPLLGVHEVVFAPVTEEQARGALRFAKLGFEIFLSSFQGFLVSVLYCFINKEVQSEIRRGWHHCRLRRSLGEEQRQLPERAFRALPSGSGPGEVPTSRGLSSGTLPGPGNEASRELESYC

T3: mGIPR-Fc protein (mouse, UniProt Q0P543 19-134, limits assumed)
T3 construct: also called mouse GIPR-Fc protein; not shown: Fc part
T3 sequence (looked up): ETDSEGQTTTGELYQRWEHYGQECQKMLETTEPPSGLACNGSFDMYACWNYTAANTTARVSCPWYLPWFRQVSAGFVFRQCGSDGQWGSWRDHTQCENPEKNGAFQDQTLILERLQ


Assays:
[1] = target: T1, GIPR on CHOK1-GIPR/GLP-1R cells; test: flow cytometry on CHOK1-GIPR/GLP-1R cells
[2] = target: T1, GIPR on CHOK1-GIPR/GLP-1R cells; test: cell-based or functional assay
hGIPR-His protein [3] = target: T2, hGIPR-His protein; test: BLI (Octet), antibody captured on FAB2G sensor, hGIPR-His in solution, 1:1 model
hGIPR-His protein [4] = target: T2, hGIPR-His protein; test: BLI (Octet), antibody captured on FAB2G sensor, hGIPR-His in solution
mGIPR-Fc protein = target: T3, mGIPR-Fc protein; test: ELISA, mGIPR-Fc coated
[5] = target: T1, GIPR on CHOK1-GIPR/GLP-1R cells; test: cell-based or functional assay; remark: listed apart in the source
[6] = target: T1, GIPR on CHOK1-GIPR/GLP-1R cells; test: flow cytometry on CHOK1-GIPR/GLP-1R cells (run with CE947)
[7] = target: T1, GIPR on CHOK1-GIPR/GLP-1R cells; test: flow cytometry on CHOK1-GIPR/GLP-1R cells (run with CA360)
[8] = target: T1, GIPR on CHOK1-GIPR/GLP-1R cells; test: flow cytometry on CHOK1-GIPR/GLP-1R cells (run with CE560)
[9] = target: T1, GIPR on CHOK1-GIPR/GLP-1R cells; test: flow cytometry on CHOK1-GIPR/GLP-1R cells (run with BA191)

Binder	EC50 [1] [µg/mL]	Maximum binding value (RFU) [1] [RFU]	IC50 (µg/mL), cAMP content [2] [µg/mL]	Kd (hGIPR-His protein [3]) [nM]	Response (hGIPR-His protein [4])	IC50 (µg/mL), cAMP content [5] [µg/mL]	EC50 [6] [µg/mL]	EC50 [7] [µg/mL]	EC50 [8] [µg/mL]	EC50 [9] [µg/mL]	binding result (mGIPR-Fc protein)
CA360 (antibody, human IgG1, kappa, L234A L235A, V domains shown, also called GIPR antibody CA360) VH: EVQLVQSGAEVKKPGSSVKVSCKASGGTFSGYPINWVRQAPGQGLEWMGRIIPIPGIPNYAQKFQDRVTITADKFANTAYMELSSLRSEDTAVYYCARDPLGPYVFDIWGQGTMVTVSS VL: not shown	0.328	281000	0.2	3.07	0.246						
2G10 (antibody, V domains shown, also called control group 2G10) VH: not shown VL: EIVMTQSPATLSVSPGERATLSCRASQSVSSNLAWYQQKPGQAPRLLIYGAATRATGIPARVSGSGSGTEFTLTISSLQSEDFAVYYCQQYNNWPLTFGGGTKVEIKR			0.21	12.6	0.142	0.3	0.213	0.213	0.263	0.151	
BA191 (antibody, human IgG1, kappa, L234A L235A, V domains shown, also called GIPR antibody BA191) VH: EVQLVQSGAEVKKPGSSVKVSCKASGGTFSTFSSYAISWVRQAPGQGLEWMGRIIPILGIGNNAQKFQGRVTITADKSTSTAYMELSSLRSEDTAVYYCAREKDWGHFDYWGQGTLVTVSS VL: DIQMTQSPSSLSASVGDRVTITCRASQGISNYLAWFQQKPGKAPKSLIYAASSLQSGVPSKFSGSGSGTDFTLTISSLQPEDFATYYCQQYNSYPITFGQGTRLEIKR	0.091	17600		4.28	0.246	0.04					no binding (tested: starting from 0.2 µg/mL)

Further lines, with some results ahead:

EC50 [1] [µg/mL]	Maximum binding value (RFU) [1] [RFU]	IC50 (µg/mL), cAMP content [2] [µg/mL]	Kd (hGIPR-His protein [3]) [nM]	Response (hGIPR-His protein [4])	IC50 (µg/mL), cAMP content [5] [µg/mL]	EC50 [6] [µg/mL]	EC50 [7] [µg/mL]	EC50 [8] [µg/mL]	EC50 [9] [µg/mL]	Binder	binding result (mGIPR-Fc protein)
0.206	492000	0.14	2.63	0.222						CE560 (antibody, human IgG1, kappa, L234A L235A, V domains shown, also called GIPR antibody CE560) VH: EVQLVQSGAEVKKPGSSVKVSCKASGGTFNNYAISWVRQAPGQGLEWMGRIIPFLDIASYAQKFQGKVTITADKSTSTAYMELSSLRSEDTAVYYCAREVDWGWFDSWGQGTLVTVSS VL: IQMTQSPSSLSASVGDRVTITCRASQGISSYLAWYQQKPGKAPKLLIYAASTLQSGVPSRFSGSGSGTDFTLTISSLQPEDFATYYCQQLNSYPLTFGGGTKVEIKR	no binding (tested: starting from 0.2 µg/mL)
0.131	311000		1.13	0.19	0.05					CE947 (antibody, human IgG1, kappa, L234A L235A, V domains shown, also called GIPR antibody CE947) VH: EVQLVQSGAEVKKPGSSVKVSCKASGGTFNNYAISWVRQAPGQGLEWMGRIIPFLDIASNAQKFQGKVTITADKSTSTAYMELSSLRSEDTAVYYCAREVDWGWFDSWGQGTLVTVSS VL: DIQMTQSPSSLSASVGDRVTITCRASQGISNYLAWFQQKPGKAPKSLIYAASSLQSGVPSRFSGSGSGTDFTLTISNLQPEDFATYYCLQYYDYPLTFGGGTKLEIKR	no binding (tested: starting from 0.2 µg/mL)
